Measured values taken from patent publication US20200377590A1 (Hoffmann-La Roche, published 2020).
Residue numbers refer to the chain shown, from its start.

T1: CD81 (UniProt P60033 1-236, limits assumed)
T1 construct: whole, on cells; also called CD81 receptor
T1 sequence (looked up): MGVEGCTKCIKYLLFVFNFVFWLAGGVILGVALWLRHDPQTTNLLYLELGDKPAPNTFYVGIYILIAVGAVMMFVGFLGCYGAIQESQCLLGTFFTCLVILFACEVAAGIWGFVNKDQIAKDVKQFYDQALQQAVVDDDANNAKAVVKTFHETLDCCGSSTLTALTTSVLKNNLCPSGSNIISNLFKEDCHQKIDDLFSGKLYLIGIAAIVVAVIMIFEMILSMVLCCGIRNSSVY

B1: CD81K04 HC JA_GG-13-hVH_1_69 / LC JA_GG-08-hVK_4_1 (antibody, V domains shown)
VH: QVQLVQSGAEVKKPGSSVKVSCKASGGTFSSSWMNWVRQAPGQGLEWMGRIYSGDGDAIYAQKFQGRVTITADESTSTAYMELSSLRSEDTAVYYCAREGKTGDLLLRSWGQGTLVTVSS
VL: DIVMTQSPDSLAVSLGERATINCKSSKSVSTSIYSYMHWYQQKPGQPPKLLIKYASYLESGVPDRFSGSGSGTDFTLTISSLQAEDVAVYYCEHSREFPFTFGQGTKLEIK
notes: human constant region
B2: CD81K04 HC JA_GG-14-hVH_1_3 / LC GG-04-hVK_4_1 (antibody, V domains shown)
VH: B1 VH with S16A, G27Y, A61N, Q62G, Q65K, V68A, E74T, T76A
VL: B1 VL with M37L, H38A, K53Y, Y57T, L58R, E93Q, F100Y
notes: human constant region
B3: CD81K04 HC K04_JA-13-hVH_1_3 / LC GG-03-hVK_4_1 (antibody, V domains shown)
VH: B1 VH with S16A, G27Y, G44R, A61N, Q62G, Q65K, A72R, E74T, T76A
VL: B1 VL with M37L, H38A, K53Y, L58R, E93Q
notes: human constant region
B4: CD81K04 HC JA_GG-14-hVH_1_3 / LC JA_GG-10-hVK_4_1 (antibody, V domains shown)
VH: B1 VH with S16A, G27Y, A61N, Q62G, Q65K, V68A, E74T, T76A
VL: B1 VL with K24R, S25A
notes: human constant region
B5: CD81K04 HC JA_GG-13-hVH_1_69 / LC GG-02-hVK_4_1 (antibody, V domains shown)
VH: B1 VH
VL: B1 VL with K53Y, L58R, E93Q
notes: human constant region
B6: CD81K04 HC GG-05-hVH_1_18 / LC JA_GG-09-hVK_4_1 (antibody, V domains shown)
VH: B1 VH with S16A, G27Y, F64L, I70M, A72T, E74T, S84R, E89D
VL: B1 VL with Y57T, L58R
notes: human constant region
B7: CD81K04 HC JA_GG-15-hVH_1_3 / LC GG-04-hVK_4_1 (antibody, V domains shown)
VH: B1 VH with S16A, G27Y, G44R, A61N, Q62G, Q65K, E74T, T76A
VL: B1 VL with M37L, H38A, K53Y, Y57T, L58R, E93Q, F100Y
notes: human constant region
B8: CD81K04 HC JA_GG-14-hVH_1_3 / LC GG-02-hVK_4_1 (antibody, V domains shown)
VH: B1 VH with S16A, G27Y, A61N, Q62G, Q65K, V68A, E74T, T76A
VL: B1 VL with K53Y, L58R, E93Q
notes: human constant region
B9: CD81K04 HC JA_GG-14-hVH_1_69-GA / LC JA_GG-08-hVK_4_1 (antibody, V domains shown)
VH: B1 VH with G27Y, A61N, Q62G, Q65K, R67K, V68A
VL: B1 VL
notes: human constant region
B10: CD81K04 HC JA_GG-13-hVH_1_69 / LC JA_GG-09-hVK_4_1 (antibody, V domains shown)
VH: B1 VH
VL: B1 VL with Y57T, L58R
notes: human constant region
B11: CD81K04 HC K04_JA-13-hVH_1_3 / LC JA_GG-09-hVK_4_1 (antibody, V domains shown)
VH: B1 VH with S16A, G27Y, G44R, A61N, Q62G, Q65K, A72R, E74T, T76A
VL: B1 VL with Y57T, L58R
notes: human constant region
B12: CD81K04 HC GG-05-hVH_1_18 / LC GG-04-hVK_4_1 (antibody, V domains shown)
VH: B1 VH with S16A, G27Y, F64L, I70M, A72T, E74T, S84R, E89D
VL: B1 VL with M37L, H38A, K53Y, Y57T, L58R, E93Q, F100Y
notes: human constant region
B13: CD81K04 HC JA_GG-15-hVH_1_3 / LC GG-03-hVK_4_1 (antibody, V domains shown)
VH: B1 VH with S16A, G27Y, G44R, A61N, Q62G, Q65K, E74T, T76A
VL: B1 VL with M37L, H38A, K53Y, L58R, E93Q
notes: human constant region
B14: CD81K04 HC JA_GG-16-hVH_1_3 / LC GG-03-hVK_4_1 (antibody, V domains shown)
VH: B1 VH with S16A, G27Y, A61N, Q62G, Q65K, E74T, T76A
VL: B1 VL with M37L, H38A, K53Y, L58R, E93Q
notes: human constant region
B15: CD81K04 HC JA_GG-13-hVH_1_69 / LC GG-04-hVK_4_1 (antibody, V domains shown)
VH: B1 VH
VL: B1 VL with M37L, H38A, K53Y, Y57T, L58R, E93Q, F100Y
notes: human constant region
B16: CD81K04 HC JA_GG-14-hVH_1_69-GA / LC GG-02-hVK_4_1 (antibody, V domains shown)
VH: B1 VH with G27Y, A61N, Q62G, Q65K, R67K, V68A
VL: B1 VL with K53Y, L58R, E93Q
notes: human constant region
B17: CD81K04 HC K04_JA-13-hVH_1_3 / LC JA_GG-10-hVK_4_1 (antibody, V domains shown)
VH: B1 VH with S16A, G27Y, G44R, A61N, Q62G, Q65K, A72R, E74T, T76A
VL: B1 VL with K24R, S25A
notes: human constant region
B18: CD81K04 HC JA_GG-14-hVH_1_69-GA / LC JA_GG-09-hVK_4_1 (antibody, V domains shown)
VH: B1 VH with G27Y, A61N, Q62G, Q65K, R67K, V68A
VL: B1 VL with Y57T, L58R
notes: human constant region
B19: CD81K04 HC JA_GG-15-hVH_1_3 / LC GG-02-hVK_4_1 (antibody, V domains shown)
VH: B1 VH with S16A, G27Y, G44R, A61N, Q62G, Q65K, E74T, T76A
VL: B1 VL with K53Y, L58R, E93Q
notes: human constant region
B20: CD81K04 HC JA_GG-13-hVH_1_69 / LC GG-03-hVK_4_1 (antibody, V domains shown)
VH: B1 VH
VL: B1 VL with M37L, H38A, K53Y, L58R, E93Q
notes: human constant region
B21: CD81K04 HC JA_GG-16-hVH_1_3 / LC GG-04-hVK_4_1 (antibody, V domains shown)
VH: B1 VH with S16A, G27Y, A61N, Q62G, Q65K, E74T, T76A
VL: B1 VL with M37L, H38A, K53Y, Y57T, L58R, E93Q, F100Y
notes: human constant region
B22: CD81K04 HC K04_JA-13-hVH_1_3 / LC JA_GG-08-hVK_4_1 (antibody, V domains shown)
VH: B1 VH with S16A, G27Y, G44R, A61N, Q62G, Q65K, A72R, E74T, T76A
VL: B1 VL
notes: human constant region
B23: CD81K04 HC K04_JA-13-hVH_1_3 / LC GG-02-hVK_4_1 (antibody, V domains shown)
VH: B1 VH with S16A, G27Y, G44R, A61N, Q62G, Q65K, A72R, E74T, T76A
VL: B1 VL with K53Y, L58R, E93Q
notes: human constant region

Target: T1, CD81
Test: cell ELISA;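 further: antibody binding to HuH7 cells expressing CD81 versus a CD81-negative HuH7 control line, bound antibody detected by secondary reagent, absorbance at 450 nm with 620 nm reference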

| ELISA data | Binder |
| --- | --- |
| 0.743 | B1 |
| 0.177 | B2 |
| 0.423 | B3 |
| 0.882 | B4 |
| 0.172 | B5 |
| 0.889 | B6 |
| 0.3 | B7 |
| 0.575 | B8 |
| 0.836 | B9 |
| 0.776 | B10 |
| 0.864 | B11 |
| 0.187 | B12 |
| 0.545 | B13 |
| 0.437 | B14 |
| 0.073 | B15 |
| 0.211 | B16 |
| 0.861 | B17 |
| 0.888 | B18 |
| 0.602 | B19 |
| 0.115 | B20 |
| 0.263 | B21 |
| 0.985 | B22 |
| 0.475 | B23 |
